Experimental data published in article PMC9481464.

Target: GTP
Assay: GTP pull-down, quantified blot
Details: + Mg2+; co-expressed with HA-RagC S75N; read off a plot

Substance | response (relative to RagBlong Q127L (set to 1))
RagB^long (from UniProt Q5VZM2) Q127L; L94A | 1.8
RagB^long (from UniProt Q5VZM2) Q127L; D96A | 0.9
RagB^long (from UniProt Q5VZM2) Q127L | 1
